Test results published in US20200062804A1 (ADRX, published 2020).
Non-standard residues stand in square brackets, D forms with d. No end group written: not given here.

Key:
Protein in Human Serum = test: protein binding in human serum; method not described
Nat1 (LTIITLE) = target: T1, Nat1 (LTIITLE) (also: TFA salt); test: cell-based or functional assay
T1 peptide: LTIITLE

Binder: [dY][dQ][dW][dY][dR][dW][dQ] [yqwyrwq]
- % Protein Binding in Human Serum (Protein in Human Serum): 98%
- IC50, Thiofiavin T aggregation assay (Nat1 (LTIITLE)): 194 nM

Binder: [dK][dF][dR][dF][dY][dH][dR] [kfrfyhr]
- % Protein Binding in Human Serum (Protein in Human Serum): 81%
- IC50, Thiofiavin T aggregation assay (Nat1 (LTIITLE)): 32 nM

Binder: [dR][dF][dY][dY][dH][dR][dR] [rfyyhrr]
- % Protein Binding in Human Serum (Protein in Human Serum): 91%
- IC50, Thiofiavin T aggregation assay (Nat1 (LTIITLE)): 76 nM

Binder: [dQ][dQ][dR][dY][dY][dW][dR] [qqryywr]
- % Protein Binding in Human Serum (Protein in Human Serum): 82%
- IC50, Thiofiavin T aggregation assay (Nat1 (LTIITLE)): 95 nM
